Data set [1] relates to HeLa Kyoto. The data set can be described thus: thermal stability score vs G1/S (z-score of summed log2 fold changes over temperatures); higher = more thermally stable than in G1/S.
Data set [2] concerns HeLa Kyoto. The data set can be described thus: solubility in G1/S (NP-40 vs SDS abundance) (log2 ratio); higher = more soluble. The following applies: cell cycle stage: G1/S.
The subject of data set [3] is HeLa Kyoto. The data set is described as follows: solubility change mitosis vs G1/S (difference of NP-40 vs SDS log2 ratios) (log2 ratio difference); higher = more soluble in mitosis.
Data set [4] has as its system HeLa Kyoto. The data set can be described thus: melting temperature (median over replicates), in situ; higher = more thermally stable.
The mark [5] stands for this setting: cell cycle stage: early G1 (4.5 h after nocodazole release).
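Wherever melting temperature (median over replicates), in situ is given: HeLa Kyoto cells synchronized by double thymidine or nocodazole block, proteins quantified by TMT10plex mass spectrometry, three independent biological replicates.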
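Wherever solubility change mitosis vs G1/S (difference of NP-40 vs SDS log2 ratios) is given: synchronized HeLa Kyoto cells (double thymidine block for G1/S, nocodazole release for mitosis), protein amounts in NP-40 versus SDS lysates quantified by mass spectrometry, three biological replicates.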
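Wherever solubility in G1/S (NP-40 vs SDS abundance) is given: HeLa Kyoto cells arrested at G1/S by double thymidine block, proteins quantified by TMT10plex mass spectrometry in mild NP-40 versus SDS extracts, three biological replicates.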
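Wherever thermal stability score vs G1/S (z-score of summed log2 fold changes over temperatures) is given: synchronized HeLa Kyoto cells, proteins quantified by TMT10plex mass spectrometry, three biological replicates, mitosis taken 0.5 h after nocodazole release, G1/S directly after double thymidine block.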

With “MESCYNPGLDGIIEYDDFKLNSSIVEPKEPAPETADGPYLVIVEQPKQRGFRFRYGCEGPSHGGLPGASSEKGRKTYPTVKICNYEGPAKIEVDLVTHSDPPRAHAHSLVGKQCSELGICAVSVGPKDMTAQFNNLGVLHVTKKNMMGTMIQKLQRQRLRSRPQGLTEAEQRELEQEAKELKKVMDLSIVRLRFSAFLRASDGSFSLPLKPVISQPIHDSKSPGASNLKISRMDKTAGSVRGGDEVYLLCDKVQKDDIEVRFYEDDENGWQAFGDFSPTDVHKQYAIVFRTPPYHKMKIERPVTVFLQLKRKRGGDVSDSKQFTYYPLVEDKEEVQRKRRKALPTFSQPFGGGSHMGGGSGGAAGGYGGAGGGGSLGFFPSSLAYSPYQSGAGPMGCYPGGGGGAQMAATVPSRDSGEEAAEPSAPSRTPQCEPQAPEMLQRAREYNARLFGLAQRSARALLDYGVTADARALLAGQRHLLTAQDENGDTPLHLAIIHGQTSVIEQIVYVIHHAQDLGVVNLTNHLHQTPLHLAVITGQTSVVSFLLRVGADPALLDRHGDSAMHLALRAGAGAPELLRALLQSGAPAVPQLLHMPDFEGLYPVHLAVRARSPECLDLLVDSGAEVEATERQGGRTALHLATEMEELGLVTHLVTKLRANVNARTFAGNTPLHLAAGLGYPTLTRLLLKAGADIHAENEEPLCPLPSPPTSDSDSDSEGPEKDTRSSFRGHTPLDLTCSTKVKTLLLNAAQNTMEPPLTPPSPAGPGLSLGDTALQNLEQLLDGPEAQGSWAELAERLGLRSLVDTYRQTTSPSGSLLRSYELAGGDLAGLLEALSDMGLEEGVRLLRGPETRDKLPSTAEVKEDSAYGSQSVEQEAEKLGPPPEPPGGLCHGHPQPQVH [NFKB2]”, the thermal stability score came to 1.06 in data set [1] (setting [5]) and 3.27 in data set [1] (cell cycle stage: mitosis). Besides, in data set [2], the “solubility in G1/S (log2)” value was determined as 0.18. Moreover, the “solubility change mitosis (log2)” value in data set [3] was -0.0485. For the same substance, the melting temperature in data set [4] (cell cycle stage: G1/S) was 47.5 °C; in data set [4] (cell cycle stage: mitosis), 48.3 °C.

For the substance “MLRTSVLRLLGRTGASRLSLLEDFGPRYYSSGSLSAGDDACDVRAYFTTPIFYVNAAPHIGHLYSALLADALCRHRRLRGPSTAATRFSTGTDEHGLKIQQAAATAGLAPTELCDRVSEQFQQLFQEAGISCTDFIRTTEARHRVAVQHFWGVLKSRGLLYKGVYEGWYCASDECFLPEAKVTQQPGPSGDSFPVSLESGHPVSWTKEENYIFRLSQFRKPLQRWLRGNPQAITPEPFHHVVLQWLDEELPDLSVSRRSSHLHWGIPVPGDDSQTIYVWLDALVNYLTVIGYPNAEFKSWWPATSHIIGKDILKFHAIYWPAFLLGAGMSPPQRICVHSHWTVCGQKMSKSLGNVVDPRTCLNRYTVDGFRYFLLRQGVPNWDCDYYDEKVVKLLNSELADALGGLLNRCTAKRINPSETYPAFCTTCFPSEPGLVGPSVRAQAEDYALVSAVATLPKQVADHYDNFRIYKALEAVSSCVRQTNGFVQRHAPWKLNWESPVDAPWLGTVLHVALECLRVFGTLLQPVTPSLADKLLSRLGVSASERSLGELYFLPRFYGHPCPFEGRRLGPETGLLFPRLDQSRTWLVKAHRT [MARS2]”, the thermal stability score is -3.14 in data set [1] (setting [5]) and -3.9 in data set [1] (cell cycle stage: mitosis). Besides, the “solubility in G1/S (log2)” value in data set [2] came to 0.0996. Besides, the “solubility change mitosis (log2)” value in data set [3] is -0.083. Also, the values for the melting temperature in data set [4] (cell cycle stage: G1/S) and in data set [4] (cell cycle stage: mitosis) were 55.2 °C and 55.5 °C, respectively.

For “MADAAPQLGKRKRELDVEEAHAASTEEKEAGVGNGTCAPVRLPFSGFRLQKVLRESARDKIIFLHGKVNEASGDGDGEDAVVILEKTPFQVEQVAQLLTGSPELQLQFSNDIYSTYHLFPPRQLNDVKTTVVYPATEKHLQKYLRQDLRLIRETGDDYRNITLPHLESQSLSIQWVYNILDKKAEADRIVFENPDPSDGFVLIPDLKWNQQQLDDLYLIAICHRRGIRSLRDLTPEHLPLLRNILHQGQEAILQRYRMKGDHLRVYLHYLPSYYHLHVHFTALGFEAPGSGVERAHLLAEVIENLECDPRHYQQRTLTFALRADDPLLKLLQEAQQS [DCPS]”, the values for the thermal stability score in data set [1] (setting [5]) and in data set [1] (cell cycle stage: mitosis) were -0.562 and -3.36, respectively. Further, the “solubility in G1/S (log2)” value in data set [2] is 0.263. Besides, the “solubility change mitosis (log2)” value in data set [3] was -0.0249. The melting temperature in data set [4] (cell cycle stage: G1/S) came to 56.3 °C; in data set [4] (cell cycle stage: mitosis), 55.7 °C.

In the case of LAMB1, the thermal stability score was determined as 3.04 in data set [1] (setting [5]) and 4.45 in data set [1] (cell cycle stage: mitosis). Further, in data set [2], the “solubility in G1/S (log2)” value stood at 0.0818. Moreover, the “solubility change mitosis (log2)” value in data set [3] is -0.0866. In addition, the melting temperature in data set [4] (cell cycle stage: G1/S) turned out to be 53.6 °C; in data set [4] (cell cycle stage: mitosis), 54.2 °C.

For “MSSEPPPPPQPPTHQASVGLLDTPRSRERSPSPLRGNVVPSPLPTRRTRTFSATVRASQGPVYKGVCKCFCRSKGHGFITPADGGPDIFLHISDVEGEYVPVEGDEVTYKMCSIPPKNEKLQAVEVVITHLAPGTKHETWSGHVISS [CARHSP1]”, the thermal stability score in data set [1] (setting [5]) is -0.479; in data set [1] (cell cycle stage: mitosis), -0.699. In addition, in data set [2], the “solubility in G1/S (log2)” value was 0.691. Besides, the “solubility change mitosis (log2)” value in data set [3] was 0.089. In addition, the melting temperature was 54.7 °C in data set [4] (cell cycle stage: G1/S) and 55.2 °C in data set [4] (cell cycle stage: mitosis).

Turning to “MCGNNMSTPLPAIVPAARKATAAVIFLHGLGDTGHGWAEAFAGIRSSHIKYICPHAPVRPVTLNMNVAMPSWFDIIGLSPDSQEDESGIKQAAENIKALIDQEVKNGIPSNRIILGGFSQGGALSLYTALTTQQKLAGVTALSCWLPLRASFPQGPIGGANRDISILQCHGDCDPLVPLMFGSLTVEKLKTLVNPANVTFKTYEGMMHSSCQQEMMDVKQFIDKLLPPID [LYPLA1]”, the thermal stability score in data set [1] (setting [5]) is 0.0704; in data set [1] (cell cycle stage: mitosis), -0.796. In addition, the “solubility in G1/S (log2)” value in data set [2] is 0.619. Moreover, the “solubility change mitosis (log2)” value in data set [3] is 0.23. Further, the melting temperature came out at 54.6 °C in data set [4] (cell cycle stage: G1/S) and 56.2 °C in data set [4] (cell cycle stage: mitosis).

Take EP300: the thermal stability score in data set [1] (setting [5]) was -0.227; in data set [1] (cell cycle stage: mitosis) it was 1.93. The “solubility in G1/S (log2)” value in data set [2] was -0.0947. For the same substance, in data set [3], the “solubility change mitosis (log2)” value was -0.0909. Besides, the melting temperature in data set [4] (cell cycle stage: G1/S) was 50.8 °C; in data set [4] (cell cycle stage: mitosis), 51.6 °C.

As to “MGDKIWLPFPVLLLAALPPVLLPGAAGFTPSLDSDFTFTLPAGQKECFYQPMPLKASLEIEYQVLDGAGLDIDFHLASPEGKTLVFEQRKSDGVHTVETEVGDYMFCFDNTFSTISEKVIFFELILDNMGEQAQEQEDWKKYITGTDILDMKLEDILESINSIKSRLSKSGHIQTLLRAFEARDRNIQESNFDRVNFWSMVNLVVMVVVSAIQVYMLKSLFEDKRKSRT [TMED5]”, the values for the thermal stability score in data set [1] (setting [5]) and in data set [1] (cell cycle stage: mitosis) were 2.08 and 1.93, respectively. Besides, in data set [2], the “solubility in G1/S (log2)” value is 0.107. Further, in data set [3], the “solubility change mitosis (log2)” value was -0.206. The results for the melting temperature in data set [4] (cell cycle stage: G1/S) and in data set [4] (cell cycle stage: mitosis) were 54.2 °C and 55.5 °C, respectively.

As for “MEELDGEPTVTLIPGVNSKKNQMYFDWGPGEMLVCETSFNKKEKSEMVPSCPFIYIIRKDVDVYSQILRKLFNESHGIFLGLQRIDEELTGKSRKSQLVRVSKNYRSVIRACMEEMHQVAIAAKDPANGRQFSSQVSILSAMELIWNLCEILFIEVAPAGPLLLHLLDWVRLHVCEVDSLSADVLGSENPSKHDSFWNLVTILVLQGRLDEARQMLSKEADASPASAGICRIMGDLMRTMPILSPGNTQTLTELELKWQHWHEECERYLQDSTFATSPHLESLLKIMLGDEAALLEQKELLSNWYHFLVTRLLYSNPTVKPIDLHYYAQSSLDLFLGGESSPEPLDNILLAAFEFDIHQVIKECSIALSNWWFVAHLTDLLDHCKLLQSHNLYFGSNMREFLLLEYASGLFAHPSLWQLGVDYFDYCPELGRVSLELHIERIPLNTEQKALKVLRICEQRQMTEQVRSICKILAMKAVRNNRLGSALSWSIRAKDAAFATLVSDRFLRDYCERGCFSDLDLIDNLGPAMMLSDRLTFLGKYREFHRMYGEKRFADAASLLLSLMTSRIAPRSFWMTLLTDALPLLEQKQVIFSAEQTYELMRCLEDLTSRRPVHGESDTEQLQDDDIETTKVEMLRLSLARNLARAIIREGSLEGS [NUP85]”, the thermal stability score was -2.34 in data set [1] (setting [5]) and -4.7 in data set [1] (cell cycle stage: mitosis). Further, in data set [2], the “solubility in G1/S (log2)” value was -0.6. In data set [3], the “solubility change mitosis (log2)” value was 0.246. Besides, the melting temperature is 52.3 °C in data set [4] (cell cycle stage: G1/S) and 50.8 °C in data set [4] (cell cycle stage: mitosis).

On to “MRECISIHVGQAGVQIGNACWELYCLEHGIQPDGQMPSDKTIGGGDDSFNTFFSETGAGKHVPRAVFVDLEPTVIDEVRTGTYRQLFHPEQLITGKEDAANNYARGHYTIGKEIIDLVLDRIRKLADQCTGLQGFLVFHSFGGGTGSGFTSLLMERLSVDYGKKSKLEFSIYPAPQVSTAVVEPYNSILTTHTTLEHSDCAFMVDNEAIYDICRRNLDIERPTYTNLNRLISQIVSSITASLRFDGALNVDLTEFQTNLVPYPRIHFPLATYAPVISAEKAYHEQLTVAEITNACFEPANQMVKCDPRHGKYMACCLLYRGDVVPKDVNAAIATIKTKRTIQFVDWCPTGFKVGINYQPPTVVPGGDLAKVQRAVCMLSNTTAVAEAWARLDHKFDLMYAKRAFVHWYVGEGMEEGEFSEAREDMAALEKDYEEVGADSADGEDEGEEY [TUBA1C]”, for which the thermal stability score in data set [1] (setting [5]) was 0.287; in data set [1] (cell cycle stage: mitosis), -2.74. In data set [2], the “solubility in G1/S (log2)” value worked out at 0.171. In addition, in data set [3], the “solubility change mitosis (log2)” value was -0.2. The melting temperature stood at 55.2 °C in data set [4] (cell cycle stage: G1/S) and 54.6 °C in data set [4] (cell cycle stage: mitosis).

Values taken from the supplement of paper PMC5998384.
